Test results published in patent publication US20180016324A1 (Regeneron, published 2018).

B1: H4H25587P (antibody, V domains shown)
VH: EVQLVESGGGLVQPGRSLTLSCAASGFTFDDYVMHWVRQAPGKGLEWVSGISWNSDTIDYADSVKGRFTISRDNAKNSLYLQMNSLRAEDTALYYCAKDRRSWYGGYFDYWGQGTLVTVSS
VL: DIQMTQSPSSLSASVGDRVTITCRASQGISSYLAWYQQKPGKVPKLLIYAASTLQSGVPSRFSGSGSGTDFSLTISSLQPEDVATYYCQKYNSAPLTFGGGTKVEIK
B2: H4H25710N (antibody, V domains shown)
VH: EVQLLESGGGLVQPGGSLRLSCAASGFTVSNNYMSWVRQAPGKGLEWVSVIYSGGRTNYGDSVKGRFTISRDNSKNTLYLQMNSLRAEDTAVYYCARENYDFWSGDPYGWDVWGQGTTVTVSS
VL: DIQMTQSPSSLSASVGDRVTITCRASQDISNYLAWFQQKPGKAPKSLIYGASSLQRGVPSKFRGSGSGTDFTLTISSLQPEDFASYYCQQYNSYPYTFGQGTKLEIK
B3: H4H25591P (antibody, V domains shown)
VH: QVQLVESGGGVVQPGRSLRLSCAASGFTFSYSGMHWVRQAPGKGLEWVAVISYDGINKYYADSVKGRFTISRDNSKNTLYLQMNSLRPEDTAVYYCAKDRGGRFDPWGQGTLVTVSS
VL: DIQMTQSPSSLSASVGDRVTITCRASQGISNYLAWYQQKPGKVPNLLIYGASTLHSGVPSRFSGSGSGTDFTLTISSLQPADVATYYCQKYNSAPLTFGGGTKVEIK
B4: H4H25592P (antibody, V domains shown)
VH: QVQLVESGGGVVQPGRSLRLSCAASGFTFSYSGMHWVRQAPGKGLEWVAVISYDGSNKYYADSVKGRFTISRDNSNNILYLQMNSLRAEDTAVYYCAKDWGGRFDPWGQGTLVTVSS
VL: DIQMTQSPSSLSASVGDRVTITCRASQGISSYLAWYQQIPGKVPKLLIYAASTLHSGVPSRFSGSGSGTDFTLTISSLQPADVATYYCQKYNSAPLTFGGGTKVEIK
B5: H4H25637P (antibody, V domains shown)
VH: QLQLQESGPGLVKPSETLSLTCTVSGDSISSSNYFWGWIRQPPGKGLEWIGNIYYSGDTYYNPSLKSRVTMSVDTSKKQFSLKLRSVTAADTAVYYCARGRPYYDFWSGYFDYWGQGTLVTVSS
VL: EIVLTQSPGTLSLSPGERATLPCRASQSVSSSYLAWYQQKPGQAPRLLIYGASSRATGIPDRFRGSGSGTDFTLTISRLEPEDFAVYYCQQYGTAPWTFGQGTKVEIK
B6: H4H25641P (antibody, V domains shown)
VH: QVQLVESGGGVVQPGRSLRLSCAASGFTFSYYGMHWVRQAPGKGLEWVAVISYDASNNYYVDSVKGRFTISRDNSKNTLYLQMNSLRAEDTAVYYCAKDYGGRFDYWGQGTLVTVSS
VL: EIVLTQSPGTLSLSPGERATLSCGASQSVSSYLAWYQQKPGQTPRLLIYGASSRATGIPDRFSGSGSGTDFTLTISRLEPEDFAVYYCQQYGSSPWTFGQGTKVEIK
B7: H4H25566P (antibody, V domains shown)
VH: QVQLQESGPGLVKPSQTLSLTCTVSGGSISSGGYYWSWIRQHPGKGLEWIGYIYYSGSTYYNPSLKSRITISIDTSKNQFSLKLTSVTAADTAVYYCARGQQLLSFDYWGQGTLVTVSS
VL: DIQMTQSPSSVSASVGDRVTITCRASQGISRWLAWYQLKPGKPPTPLIYAASSLQSGAPSRFSGRGSGTDFTLTISSLQPEDFATYYCQQANSFPYTFGQGTKLEIK
B8: H4H25708N (antibody, V domains shown)
VH: EVQLLESGGDLVQPGGSLRLSCAASGFTFSSYAMSWVRQAPGKGLEWVSAISVSGDSTYYADSVKGRFTISRDNSKNTLYLQMNSLRAEDTAVYYCAKDRGYTWNYYYYGMDVWGQGTTVTVSS
VL: not shown

Legend:
[1] = molecular target: T1, ZIKV prM/E polyprotein on virus-like particles (VLPs) from HEK293T/17 cells (Zika virus, UniProt A0A024B7W1 123-795); test: MSD ECL, VLPs on plate
T1 construct: also called ZIKV prM/E VLPs; Zika prM/E VLPs

[2] = molecular target: T2, ZIKV (prM80E) with a C-terminal myc-myc-hexahistidine tag (Zika virus, UniProt A0A024B7W1 104-694); test: SPR, mAb captured, 37C
T2 construct: also called ZIKV (prM80E)-mmH; ZIKV-mmH

[3] = molecular target: T2, ZIKV (prM80E) with a C-terminal …; test: SPR, mAb captured, 37C; remark: listed apart in the source
[4] = molecular target: T2, ZIKV (prM80E) with a C-terminal …; test: SPR, mAb captured, 25C
[5] = molecular target: T2, ZIKV (prM80E) with a C-terminal …; test: SPR, mAb captured, 37C; remark: listed apart in the source
[6] = molecular target: ZIKV envelope glycoprotein (E) of strain MR766 (Uganda 1947) (Zika virus, UniProt Q32ZE1 291-790); test: cell-based or functional assay
[7] = molecular target: ZIKV envelope glycoprotein (E) of strain PRVABC59 (Puerto Rico 2015) (Zika virus); test: cell-based or functional assay
[8] = molecular target: ZIKV envelope glycoprotein (E) of strain FLR (Colombia 2015) (Zika virus); test: cell-based or functional assay
[9] = molecular target: T2, ZIKV (prM80E) with a C-terminal …; test: SPR, mAb captured, 37C, pH 7.4
[10] = molecular target: T2, ZIKV (prM80E) with a C-terminal …; test: SPR, mAb captured, 37C, pH 6.0 chase
[11] = molecular target: T2, ZIKV (prM80E) with a C-terminal …; test: SPR, mAb captured, 37C, pH 5.0 chase
[12] = molecular target: T2, ZIKV (prM80E) with a C-terminal …; test: SPR, mAb captured, 37C, pH 5.5 chase

Binder | EC50 [1] | t½ pH 7.4/t½ pH 6.0 [2] | t½ pH 7.4/t½ pH 5.0 [3] | t½ pH 7.4/t½ pH 5.5 [3] | Kd [4] | koff [4] | kon [4] | t½ [4] | Kd [5] | koff [5] | kon [5] | t½ [5] | koff [9] | t½ [9] | koff [10] | t½ [10] | koff [11] | t½ [11] | koff [12] | t½ [12] | also measured
B1 | 0.145 nM | 0.8 | 1 | 1 | 5.13 nM | 0.00422 s⁻¹ | 822000 M⁻¹ s⁻¹ | 2.7 min | 13.2 nM | 0.0145 s⁻¹ | 1.1e+06 M⁻¹ s⁻¹ | 0.8 min | 0.018 s⁻¹ | 0.64 min | 0.0151 s⁻¹ | 0.77 min | 0.0177 s⁻¹ | 0.7 min | 0.0174 s⁻¹ | 0.66 min | neutralization IC50, Vero cells [6]: 0.15 nM; neutralization IC50, Vero cells [7]: 0.321 nM; neutralization IC50, Vero cells [8]: 0.955 nM
B2 | 0.542 nM | 24 | 62.6 | 33.4 | 6.99 nM | 0.00209 s⁻¹ | 299000 M⁻¹ s⁻¹ | 5.5 min | 12.4 nM | 0.0064 s⁻¹ | 519000 M⁻¹ s⁻¹ | 1.8 min | 0.00541 s⁻¹ | 2.14 min | 0.13 s⁻¹ | 0.09 min | 0.339 s⁻¹ | 0.03 min | 0.181 s⁻¹ | 0.06 min | neutralization IC50, Vero cells [6]: 0.0471 nM; neutralization IC50, Vero cells [7]: 1.24 nM; neutralization IC50, Vero cells [8]: 1.06 nM
B3 | 0.102 nM | 2.2 | 2.4 | 2.9 | 4.9 nM | 0.00318 s⁻¹ | 649000 M⁻¹ s⁻¹ | 3.6 min | 8.37 nM | 0.00682 s⁻¹ | 816000 M⁻¹ s⁻¹ | 1.7 min | 0.0063 s⁻¹ | 1.83 min | 0.0136 s⁻¹ | 0.85 min | 0.0148 s⁻¹ | 0.8 min | 0.0184 s⁻¹ | 0.63 min | neutralization IC50, Vero cells [6]: 0.0343 nM; neutralization IC50, Vero cells [7]: 0.254 nM; neutralization IC50, Vero cells [8]: 0.33 nM
B4 | 0.213 nM | 2.9 | 3.8 | 4.2 | 0.502 nM | 0.000676 s⁻¹ | 1.35e+06 M⁻¹ s⁻¹ | 17.1 min | 1.02 nM | 0.00165 s⁻¹ | 1.61e+06 M⁻¹ s⁻¹ | 7 min | 0.00174 s⁻¹ | 6.63 min | 0.00503 s⁻¹ | 2.3 min | 0.00658 s⁻¹ | 1.8 min | 0.00736 s⁻¹ | 1.57 min | neutralization IC50, Vero cells [6]: 0.0426 nM; neutralization IC50, Vero cells [7]: 0.218 nM; neutralization IC50, Vero cells [8]: 0.553 nM
B5 | 0.322 nM | 0.3 | 0.2 | 0.4 | 6.33 nM | 0.00391 s⁻¹ | 617000 M⁻¹ s⁻¹ | 3 min | 9.97 nM | 0.00989 s⁻¹ | 992000 M⁻¹ s⁻¹ | 1.2 min | 0.0118 s⁻¹ | 0.98 min | 0.00392 s⁻¹ | 2.95 min | 0.00228 s⁻¹ | 5.1 min | 0.00414 s⁻¹ | 2.79 min | neutralization IC50, Vero cells [6]: 0.0671 nM; neutralization IC50, Vero cells [7]: 0.239 nM; neutralization IC50, Vero cells [8]: 0.134 nM
B6 | 2.87 nM | 0.8 | 0.7 | 1.1 | 8.75 nM | 0.00922 s⁻¹ | 1.05e+06 M⁻¹ s⁻¹ | 1.3 min | 11.9 nM | 0.0188 s⁻¹ | 1.59e+06 M⁻¹ s⁻¹ | 0.6 min | 0.0191 s⁻¹ | 0.61 min | 0.0159 s⁻¹ | 0.73 min | 0.0133 s⁻¹ | 0.9 min | 0.0204 s⁻¹ | 0.57 min | neutralization IC50, Vero cells [6]: 0.0371 nM; neutralization IC50, Vero cells [7]: 0.356 nM; neutralization IC50, Vero cells [8]: 0.212 nM
B7 | 0.82 nM | 5.5 | 6.8 | 7.2 | 27.7 nM | 0.0163 s⁻¹ | 590000 M⁻¹ s⁻¹ | 0.7 min | 52.5 nM | 0.036 s⁻¹ | 687000 M⁻¹ s⁻¹ | 0.3 min | 0.0542 s⁻¹ | 0.21 min | 0.299 s⁻¹ | 0.04 min | 0.368 s⁻¹ | 0.03 min | 0.392 s⁻¹ | 0.03 min | neutralization IC50, Vero cells [8]: 1.55 nM
B8 | 133 nM | 0.6 | 0.5 | 0.6 | 1.21 nM | 0.000504 s⁻¹ | 417000 M⁻¹ s⁻¹ | 22.9 min | 2.97 nM | 0.00232 s⁻¹ | 781000 M⁻¹ s⁻¹ | 5 min | 0.0026 s⁻¹ | 4.45 min | 0.00144 s⁻¹ | 8.02 min | 0.00129 s⁻¹ | 8.9 min | 0.00157 s⁻¹ | 7.37 min | neutralization IC50, Vero cells [6]: 0.349 nM
